# Reference: the nanobody polyreactivity screen of Harvey et al. (2022)
# Test: yeast display, Sf9 membrane polyspecificity reagent, FACS + sequencing; frameworks hold sequencing errors
# How it was run: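 Sorting gates, low and high (top ~1%), were placed on anti-HA fluorescence to track expression and on streptavidin fluorescence to track reagent binding. A clone's polyreactivity label is taken from the gate it came out of. The reagent was 10% biotinylated, detergent-solubilized Sf9 membrane, applied for 1 hour at 4 °C to galactose-induced yeast display cells.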
row,Sequence,polyreactivity (PSR sort gate)
1,QVQLVESGGGLVQAGGSLRLSCAASGFIFYRYAMGWYRQAPGKERELVAAITGSGARTYYADSVKGRFTISRDNAKNTVYLQMNSLKPEDTAVYYCAARYILSKYGSGVRYNYWGQGTQVTVSS,high polyreactivity
2,QVQLVESGGGLVQAGGSLRLSCAASGSIFGPYAMGWYRQAPGKERELVAAITWSGDSTYYADSVKGRFTISRDNAKNTVYLQMNSLKPEDTAVYYCAAETFIWGQGTQVTVSS,low polyreactivity
3,QVQLVESGGGLVQAGCSLRLSCAASGRTFNGYAMGWYRQAPGKERELVAAIASEGDTNYADSVKGRFTISRDNAKNTVYLQMNSLKPEDTAVYYCNADITRIWHFKYDYWGQGTQVTVSS,high polyreactivity
4,QVQLVESGGGLVQAGGSLRLSSAASGLTFYVYAMGWYRQGPGKEREWVARITWSGGSTYYADSVKGRFTISRDHAKNTVYLQMNSLKPEDTAVYYCAAEWSEESDYWGQGTQVTVSS,low polyreactivity
5,QVQLVESGGGLVQAGGSLRLSCAASGIIFNWYAMGWYRQAPGKERELVAGISTSGGSTYYADSVKGRFTISRDNAKNTVYLQMNSLKPEDTAVYYCAAGRRGAWQYGYYYWGQGTQVTVSS,high polyreactivity
6,QLQIVESGGGLVQAGGSLRLTCAASGSTFPLYAMGWYSQAPGKEREFVAAIRWIGGSTYYADSVKGRFTISRDNAKNSVYLLMNSLKPEDTAVYYGAADYVVSAFDYWGQGTQVTVSS,low polyreactivity
7,QVQLVESGGGLVQAGGSLRLSCAASGSLFKRNAMGWYRQAPGKERELVAAITSSGGRTYYADSVKGRFTISRDNAKNTVYLLMNSLKPEDTAVYYCNKVRAGRDERRAGDYWGQGTQVTVSS,high polyreactivity
8,QVQHEESGGGLDQPGGSLRLTCAASGRIFNGYKMGWYRKAPGKETEFVDTISRSGGSTYYADSVKGRFTISRDNAKNSVYLQMNSLKPEDTAVYYCAKSYPDKWEYDYWGQGTQVTVSS,low polyreactivity
9,QVQLVESGGGLVQAGGSLLLSCAASGTTFDRNAMGGYRQAPGKEREIVDAIRFGGGSTNYADSVKGRFTISRDNAKNTVYLLMNSLKPEDTAVYYCNAERIWRYKYGYDYWGQGTQVTVSS,high polyreactivity
10,QVQLVESGGGLVQAGGSLRLSCAASGFTFYLYTMGWYRQAPGKERELVATINSDGGTNYADSVKGRFTISRDNAKNSVYLQMNSLKPEDTAVYYCNAASRRGSRKQAKYEYWGQGTQVTVSS,low polyreactivity
11,QVQLVESGGGLVQAGGSLRLSCAASGRTFYPYDMGWYRQAPGKERELDAAISRSGGSTYYADSVKGRFTISRDNAKNSVYLQMNSLKPEDTAVYYCAAVYYSYSFVDHYDYWGQGTQVTVSS,low polyreactivity
12,QVQLVESGGGLVQAGGSLRLSCAASGSTFRYNAMGWYRQAPGKERELVAAITSSGGRTYYADSVKGRFTISRDNAKKTVYLQRISLKPEDTAVYYCDAYAYYHTGDDYWGQGTQVTVSS,high polyreactivity
13,QVQLVESGGGLVQAGGSLRLSCAAYGSTFNYKAMAWYRQAQGKERELVATITTSGGSTYYADSVKGRFTISRDNAKNTVYLQMNSLKPEDTAVYYCAARYPWSVYRIYGAHYDYWGQGTLVTVSS,low polyreactivity
14,QDQLVESGGGLVQAGGSLRISCAASGRIFDYNAMGWYRQAPGKERELVAAITGGGNTTYADSVKGRFTISRDNAKNTVYLQMNSLKPEDTAVYYCAADVVSVYRLSYKPLGYYWGQGTQVTVSS,low polyreactivity
15,QDQLVESGGGLVQAGGSLRLSCAATGSTYYGYVMGWYRKAPGKETELVAAINLRGDRTYYADSVKGRFTISRDNAKNTVYLQMNSLKPEESSVYYCAARVMFYNSIKRYSWGQGTQVTGSS,high polyreactivity
16,QVQLVESGGGLVQAGGSLRLSCAASGRIISYNAMGWYRQAPGKERELVAAISWGGGSTYYADSVKGRFTISRDNAKNTVYLQLNSLKPEDTAVYYCAKGWYRIKRNDYWGQGTQVTVSS,low polyreactivity
17,QVQLVESGGGLVQAGGRLRLSCAASGRIFRWNPMGWYRPAPGIERELVAAISASGGRTNYADSVKGRFTISRDNAKNTVYLQMKSLKPEDTAVYYCAAGPVYYYVPIGYDYWGQGTQVTVSS,high polyreactivity
18,QVQLVESGGGLVQAGGSLRLSCAASGRIFDENAMGWYRQAPGKERELVATISSSGVSTSYADSVKGRFTISRDNAKNTVYLQMNSLKPEDTAVYYCNAGYRRRYKFVYWGQGTQVTVSS,low polyreactivity
19,QVQLVDSGGGLVQAGGSLRLSCAASGITFGRYAMGWYRQAPGKERELVATITVNGGRTYYADSVKGRFTISRDNAKNTVYLQMNSLKPEDTAVYYCAAESAVDFDYWGQGTQVTVSS,low polyreactivity
20,QVQLVESGGGLVQAGGSLRLSCAASGRILGNNVMGWYRQAPGKERELVAAITSSGGRTYYADSVKGRFTISRDNAKNTVYLQMNSLKPEDTAVYYCAAERRYYGKFNYWGQGTQVTVSS,high polyreactivity
21,QVQLVESGGGLVQAGGSLRLSCAASGRTFTVNRMGWYRQAPGKERELVAGITLRGANTYYADSVKGRFTISRDNAKNTVYLQMNSLKPEDTAVYYCNDDVKYRYNHWGQGTQVTVSS,high polyreactivity
22,QVQLVESGGGLVQAGGSLRLSCAASGSTFLGNAMGWYRQAPGKERELVATITGSSGSTYYADSVKGRFTISRDNAKNTVYLQMNSLKPEDTAVYYCAAQRRVVGRHGLSLIRYDYWGQGTQVTVSS,low polyreactivity

row,Sequence,polyreactivity (PSR sort gate)
1,QVHLVDSGGGLVQAGGSLRLTCAASGSSFWAYVMGWYRQAPGKERELVAAISKSGVRTHYADSVKGRFTISRDNAKTTFYLQMNSLKPEDTAVYYFAAVGFGNLDDYWGQGTQVTVSS,high polyreactivity
2,QVQLVESGVGLVQAGGSLRLSCAASGRIFYYNAMGWYRQAPGKVRELVASISWDASSTYYADSVKGRFTISRDNAKNTVYLQMNSLKPEDTAVYYCNKKHLYRQYDYWGQGTQVTVTS,low polyreactivity
3,QVQLVESGGGLVQAGGSLRLSCAASGFILSPNTMGWYRLAPGKERELVAAISSDVSTYADSVKGRFTISRDNAKNTVYLQMYSLKPEDTAVYYCNADDFGYASYESWGQGTQVTVSS,low polyreactivity
4,QVQLVESGGGIVQAGGSLRLSCAASGFIFRYYVMGSYRQAPGKERELVASISRSGTSTYYADSVKGRFTISRDNAKNTVYLQMNSLKPEDTAVYYCAKGVGRGFGSATGYYWGQGTQVTVSS,high polyreactivity
5,QVQHVESGGGLVQAGGSLGLSCAASGRIFGVYAMGWYTQAPGKERELVAAIWSGGSTYYADSVKGRFTISRDNAKNTVYLQMNSLKPEDTAVYYCAADDAYSHRSLYSHNDYWGQGNQVTVSS,low polyreactivity
6,QVQLLESGGGLVQAGGSLRISCAASGSTFVRYPMGWYRQAPGKERELVAGISSGDRTYYADSVKGRFTISRDNAKNTVYLQMNSLKPEYTSVYYCNARPVYLLEGYYWGQGTQVTVSS,low polyreactivity
7,QVQLVESGGGLVQAGGSLRLICAASGLTFDVNAMGWYRQAPGKERELVAAITADDGSTYYADSVKGRFTISRDNAKNTVYLQMNSLKPEDTAVYYCNADTRTQGPYSAPYYREMNYWGQGTQVTVSS,low polyreactivity
8,QVQLVESGGGLVQAGGSLRLSCAASGIIFLGYVMGWYRQAPGKERELVAAISSSGGRTYYADSVKGRFTISRDNAKNTVYLQMNSLKPEDTAVYYCATRTLQPGYTYPRYYWGQGTQVTVSS,high polyreactivity
9,QVQLVESGGGLVQAGGSLRLSCAASGSTFSAYVMGWYRQAPVKERELVAAISSIGGSTYYADSVKGRFTISRDNAKNTVYLQMNSLKPEDTAVYYCAAEPPGSTYEGGYWGQGTQVTVSS,low polyreactivity
10,QVQLVESGGGLVQAGGSLRLSCAASGSTFGTYAMGCYRQAPGKARELVAAISGRGTSTYYADSVKGRFTISRDNAKITVYLQMNSLKPEDTAVYYCNAVFWSRSSHFDYWGQGTQVTVSS,high polyreactivity
11,QVQLVESGGGLVQAGGSLRLICDASGIYYRNAMGWYRQAPGKEREMVAAISWSGGSTYYADSVKGRFTISRDNAKNTVYLQMNSLNPEDTAVYYCAAVGGRYPSNVLGYYYWGQGTQVTVSS,high polyreactivity
12,QVQHVESGGGLVQAGGSLRLSCAASGSTFRYYTMGWYRQAPGKERELVAAISGSGGITYYADSVKGRFTISRDNAKNTVYLQMNSLKPEDTAVYYCNAGVFYRDDYWGQGTEVTVSS,high polyreactivity
13,QVQLVESGGGLVQAGGSLRLSCAASGSTFWYYAMGWYRQAPGKEWEFVAAIKWSGGRTDYADSVKGRFTISRDIAKNTVYLQMNSLKAEDTAVYYFAADYSFRSFPIDANVLGYEYWGQGTQVTVSS,high polyreactivity
14,QVQLVESGGGLVQAGGSLRLSCAASGRIFYYYAMGWYRQAPGKERELVAGIDSGDSTNYADSVKGRFTISRDNAKNTVYLQMNSLKPEDTAVYYCAALHYGGYFSYYPYYYWGQGTQVTVSS,low polyreactivity
15,QVQLVESGGGLVQAGGSLRLSCAAAGIIFTGYAMGWYRQAPGKERELVAAITASGGRTYYADSVKGRYTISRDNAKNTVYLQMNSLKPEDTAVYYCNAVPTVLRVLKYDYWGQGTQVTVSS,high polyreactivity
16,QVQLVESGGGLVQAGGSLRLSCAASGFTFPQYAMGWYRQAPGKERELFAAISKRSGGTRYADSGKGRFTISRDNSKNTVYLHMKSLKPEDTAVNYCINYGQVPGYFTLEYLGQGTQVTVSS,high polyreactivity
17,QVQLVESGGGLVQAGGSLRLSCAASGSIFKGYALGWYRQAPGKERELVAAITYSGGGTYYADSVKGRFTISRDNAKNTVYLQMNSLKPEDTAVYYCNADRYYPDDLSDGVGTYDYWGQGTQVTVSS,low polyreactivity
18,QVQLVESGGGLVQAGGSLRLSCAASGSIFRYYAMGWYRQEPGKERELVAAISWDGGTTYYADSVKGRFTISRDNAKNTVYLQMNSLKPEDTGVYYCNVEFPLSSYGYDYWGQGTQVTVSS,low polyreactivity
19,QVQLVESGGGLVQAGGSLRLSCAASGSIFRVYTMGWYRQAPGKERELVAAISRSGGRTYYADSVKGRFTISRDNAKNTVYLQMNSLKPEDTAVYYCNAQYGGQYGYGYWGQGTQVTVSS,high polyreactivity
20,QVQLVESVGGLVQAGGSLPLSCAASGFTFSDYAMGWYRQAPGKESELVAGISSGGYTNYADSVKGRFTISRDNAKNTVYLQMNSLKPEDTAVYYCAAAYYSKFGYWGKGTQVTVSS,high polyreactivity
21,QVQLVESGGGLVQAGGSLRLSCAASGRIFDLNAMGWYRQAPGKERELVADINSGGSTYYADSVKGRFTISRDNAKNTVYLQMNSLKPEDTAVYYCAVRRNQHVVQMYYWGQGTQVTVSS,low polyreactivity
